Data: publication PMC10397247
Each block holds one binder with its values, some of them ahead of it.

Legend:
Test in all cases: two-hybrid library CCmax;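 also: natural log of median RNA to DNA barcode read ratio; higher means stronger binding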
O7-AA = molecular target: T1, O7-AA; settings: mean of both orientations
T1 chain: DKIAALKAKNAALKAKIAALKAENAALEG

4H3619-AA = molecular target: T2, 4H3619-AA; settings: mean of both orientations
T2 chain: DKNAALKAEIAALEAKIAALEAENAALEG

4H3340-AA = molecular target: T3, 4H3340-AA; settings: mean of both orientations
T3 chain: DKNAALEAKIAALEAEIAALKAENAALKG

4H3915-AA = molecular target: T4, 4H3915-AA; settings: mean of both orientations
T4 chain: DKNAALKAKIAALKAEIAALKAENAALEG

4H432-AA = molecular target: T5, 4H432-AA; settings: mean of both orientations
T5 chain: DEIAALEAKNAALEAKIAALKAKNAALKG

AP2-AA = molecular target: T6, AP2-AA; settings: mean of both orientations
T6 chain: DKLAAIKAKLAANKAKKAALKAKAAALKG

P5-AA-1HAA-D = molecular target: T7, P5-AA-1HAA-D; settings: mean of both orientations
T7 chain: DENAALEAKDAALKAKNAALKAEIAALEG

P12-AA = molecular target: T8, P12-AA; settings: mean of both orientations
T8 chain: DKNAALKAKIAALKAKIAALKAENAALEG

P5-AA-12HGe-H = molecular target: T9, P5-AA-12HGe-H; settings: mean of both orientations
T9 chain: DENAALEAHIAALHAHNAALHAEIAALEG

P5-AA-1HAA-T = molecular target: T10, P5-AA-1HAA-T
T10 chain: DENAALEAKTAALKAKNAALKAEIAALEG

P5-AA-1HGe-M = molecular target: T11, P5-AA-1HGe-M; settings: mean of both orientations
T11 chain: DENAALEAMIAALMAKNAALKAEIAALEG

P5-AA-1HAA-S = molecular target: T12, P5-AA-1HAA-S; settings: mean of both orientations
T12 chain: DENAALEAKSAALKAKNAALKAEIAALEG

P11-AA = molecular target: T13, P11-AA; settings: mean of both orientations
T13 chain: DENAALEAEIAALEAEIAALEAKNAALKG

P5-AA-1HGe-R = molecular target: T14, P5-AA-1HGe-R; settings: mean of both orientations
T14 chain: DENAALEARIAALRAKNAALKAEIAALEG

AP6-AA = molecular target: T15, AP6-AA; settings: mean of both orientations
T15 chain: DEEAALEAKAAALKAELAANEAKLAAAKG

4H_APH3 = molecular target: T16, 4H_APH3
T16 chain: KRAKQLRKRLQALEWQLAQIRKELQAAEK

zCON9_D = molecular target: T17, zCON9_D; settings: mean of both orientations
T17 chain: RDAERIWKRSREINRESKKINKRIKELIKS

4H3354-AA = molecular target: T18, 4H3354-AA; settings: mean of both orientations
T18 chain: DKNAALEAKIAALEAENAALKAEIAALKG

4H3855-AA = molecular target: T19, 4H3855-AA; settings: mean of both orientations
T19 chain: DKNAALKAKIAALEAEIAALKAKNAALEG

4H2148-AA = molecular target: T20, 4H2148-AA; settings: mean of both orientations
T20 chain: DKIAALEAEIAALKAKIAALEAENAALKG

4H4038-AA = molecular target: T21, 4H4038-AA; settings: mean of both orientations
T21 chain: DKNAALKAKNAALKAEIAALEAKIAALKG

4H335-AA = molecular target: T22, 4H335-AA; settings: mean of both orientations
T22 chain: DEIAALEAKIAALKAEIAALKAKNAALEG

4H1454-AA = molecular target: T23, 4H1454-AA; settings: mean of both orientations
T23 chain: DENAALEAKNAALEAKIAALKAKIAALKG

4H497-AA = molecular target: T24, 4H497-AA; settings: mean of both orientations
T24 chain: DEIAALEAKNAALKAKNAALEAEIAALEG

4H675-AA = molecular target: T25, 4H675-AA; settings: mean of both orientations
T25 chain: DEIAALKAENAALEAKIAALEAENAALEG

4H2248-AA = molecular target: T26, 4H2248-AA; settings: mean of both orientations
T26 chain: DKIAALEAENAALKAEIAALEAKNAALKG

4H1064-AA = molecular target: T27, 4H1064-AA
T27 chain: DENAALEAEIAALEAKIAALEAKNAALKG

4H2283-AA = molecular target: T28, 4H2283-AA; settings: mean of both orientations
T28 chain: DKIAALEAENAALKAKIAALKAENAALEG

4H1324-AA = molecular target: T29, 4H1324-AA; settings: mean of both orientations
T29 chain: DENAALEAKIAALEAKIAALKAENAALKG

Core_NNII-es_KKKK = molecular target: T30, Core_NNII-es_KKKK; settings: mean of both orientations
T30 chain: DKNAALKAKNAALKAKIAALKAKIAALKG

4H122-AA = molecular target: T31, 4H122-AA; settings: mean of both orientations
T31 chain: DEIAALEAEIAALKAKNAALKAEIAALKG

4H58-AA = molecular target: T32, 4H58-AA; settings: mean of both orientations
T32 chain: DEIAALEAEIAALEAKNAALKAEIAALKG

4H2721-AA = molecular target: T33, 4H2721-AA; settings: mean of both orientations
T33 chain: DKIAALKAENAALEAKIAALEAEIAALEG

P6-AA-12HGe-R = molecular target: T34, P6-AA-12HGe-R; settings: mean of both orientations
T34 chain: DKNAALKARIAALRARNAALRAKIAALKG

P6-AA-1HAA-R = molecular target: T35, P6-AA-1HAA-R; settings: mean of both orientations
T35 chain: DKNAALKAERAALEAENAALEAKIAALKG

P6-AA-1HAA-H = molecular target: T36, P6-AA-1HAA-H; settings: mean of both orientations
T36 chain: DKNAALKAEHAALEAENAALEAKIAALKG

4H4033-AA = molecular target: T37, 4H4033-AA; settings: mean of both orientations
T37 chain: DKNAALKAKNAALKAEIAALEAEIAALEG

4H2614-AA = molecular target: T38, 4H2614-AA; settings: mean of both orientations
T38 chain: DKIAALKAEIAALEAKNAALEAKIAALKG

4H2985-AA = molecular target: T39, 4H2985-AA; settings: mean of both orientations
T39 chain: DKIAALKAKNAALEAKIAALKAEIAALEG

4H2238-AA = molecular target: T40, 4H2238-AA; settings: mean of both orientations
T40 chain: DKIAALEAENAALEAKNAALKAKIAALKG

4H3605-AA = molecular target: T41, 4H3605-AA; settings: mean of both orientations
T41 chain: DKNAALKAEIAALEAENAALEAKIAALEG

4H2536-AA = molecular target: T42, 4H2536-AA; settings: mean of both orientations
T42 chain: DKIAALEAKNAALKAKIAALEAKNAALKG

interaction score (O7-AA): 1.08
B1: 4H171-AA (peptide)
chain: DEIAALEAENAALEAKIAALKAENAALEG

interaction score (4H3619-AA): -1.97 | interaction score (4H3340-AA): -1.45 | interaction score (4H3915-AA): -0.705 | interaction score (4H432-AA): -1.72
B2: 4H249-AA (peptide)
chain: DEIAALEAENAALKAKNAALKAEIAALEG

interaction score (AP2-AA): -1.36 | interaction score (P5-AA-1HAA-D): 1.43 | interaction score (P12-AA): -0.654 | interaction score (P5-AA-12HGe-H): 1.86 | interaction score (P5-AA-1HAA-T): 1.75 | interaction score (P5-AA-1HGe-M): 2.26 | interaction score (P5-AA-1HAA-S): 1.63 | interaction score (P11-AA): -1.15 | interaction score (P5-AA-1HGe-R): 2.23 | interaction score (AP6-AA): -0.593 | interaction score (4H_APH3): -1.55 | interaction score (zCON9_D): -1.76
B3: 4H3606-AA (peptide)
chain: DKNAALKAEIAALEAENAALEAKIAALKG

interaction score (4H3354-AA): -1.37 | interaction score (4H3855-AA): -1.94 | interaction score (4H2148-AA): -1.61
B4: 4H1845-AA (peptide)
chain: DENAALKAKIAALEAKNAALEAKIAALEG

interaction score (4H4038-AA): 1.56
B5: 4H1385-AA (peptide)
chain: DENAALEAKIAALKAKIAALKAEIAALEG

interaction score (4H335-AA): -1.5
B6: 4H2165-AA (peptide)
chain: DKIAALEAEIAALKAKNAALEAKIAALEG

interaction score (4H3340-AA): -1.43
B7: 4H1626-AA (peptide)
chain: DENAALKAEIAALKAENAALKAEIAALKG

interaction score (4H1454-AA): 0.729 | interaction score (4H497-AA): -1.3 | interaction score (4H675-AA): -1.16 | interaction score (4H2248-AA): -1.34 | interaction score (4H1064-AA): 0.0437 | interaction score (4H2283-AA): -1.69
B8: 4H1064-AA (peptide)
chain: DENAALEAEIAALEAKIAALEAKNAALKG

interaction score (4H1324-AA): -0.874 | interaction score (Core_NNII-es_KKKK): 1.83 | interaction score (4H122-AA): -1.61 | interaction score (4H335-AA): -0.418
B9: 4H1153-AA (peptide)
chain: DENAALEAENAALEAEIAALEAEIAALEG

interaction score (4H1454-AA): -0.555 | interaction score (4H3354-AA): -1.6 | interaction score (4H3855-AA): -0.401 | interaction score (4H58-AA): -1.21 | interaction score (4H2721-AA): 1.02
B10: 4H1257-AA (peptide)
chain: DENAALEAENAALKAKIAALKAEIAALEG

interaction score (AP2-AA): -1.98 | interaction score (P12-AA): -1.92 | interaction score (P6-AA-12HGe-R): -1.02 | interaction score (P6-AA-1HAA-R): 1.83 | interaction score (P11-AA): 0.388 | interaction score (P6-AA-1HAA-H): 2.06 | interaction score (AP6-AA): -1.73 | interaction score (4H_APH3): -1.06 | interaction score (zCON9_D): -1.37
B11: 4H1401-AA (peptide)
chain: DENAALEAKIAALKAKNAALKAEIAALEG

interaction score (4H4033-AA): -0.0842 | interaction score (4H2614-AA): -0.142 | interaction score (4H4038-AA): 0.909 | interaction score (4H2985-AA): 0.636 | interaction score (4H2238-AA): -1.14 | interaction score (4H3605-AA): -0.433 | interaction score (4H2536-AA): -0.188
B12: 4H1350-AA (peptide)
chain: DENAALEAKIAALKAEIAALEAKIAALKG
